These results are taken from publication PMC9718841.

Experiment [1] concerns the target recombinant human CALM2 protein (human) (UniProt P0DP24). As to the kind of experiment: MST; CaCl2.
The target is the same in experiment [2]. As to the kind of experiment: MST; labelled CALM2 at 500 nM, peptide in 16-point serial dilution, 25 °C; in the absence (1 mM EDTA, Apo-CALM2) and presence of Ca2+.

peptide TLIQ2, sequence (O00206 whole entry, looked up, tested part not stated): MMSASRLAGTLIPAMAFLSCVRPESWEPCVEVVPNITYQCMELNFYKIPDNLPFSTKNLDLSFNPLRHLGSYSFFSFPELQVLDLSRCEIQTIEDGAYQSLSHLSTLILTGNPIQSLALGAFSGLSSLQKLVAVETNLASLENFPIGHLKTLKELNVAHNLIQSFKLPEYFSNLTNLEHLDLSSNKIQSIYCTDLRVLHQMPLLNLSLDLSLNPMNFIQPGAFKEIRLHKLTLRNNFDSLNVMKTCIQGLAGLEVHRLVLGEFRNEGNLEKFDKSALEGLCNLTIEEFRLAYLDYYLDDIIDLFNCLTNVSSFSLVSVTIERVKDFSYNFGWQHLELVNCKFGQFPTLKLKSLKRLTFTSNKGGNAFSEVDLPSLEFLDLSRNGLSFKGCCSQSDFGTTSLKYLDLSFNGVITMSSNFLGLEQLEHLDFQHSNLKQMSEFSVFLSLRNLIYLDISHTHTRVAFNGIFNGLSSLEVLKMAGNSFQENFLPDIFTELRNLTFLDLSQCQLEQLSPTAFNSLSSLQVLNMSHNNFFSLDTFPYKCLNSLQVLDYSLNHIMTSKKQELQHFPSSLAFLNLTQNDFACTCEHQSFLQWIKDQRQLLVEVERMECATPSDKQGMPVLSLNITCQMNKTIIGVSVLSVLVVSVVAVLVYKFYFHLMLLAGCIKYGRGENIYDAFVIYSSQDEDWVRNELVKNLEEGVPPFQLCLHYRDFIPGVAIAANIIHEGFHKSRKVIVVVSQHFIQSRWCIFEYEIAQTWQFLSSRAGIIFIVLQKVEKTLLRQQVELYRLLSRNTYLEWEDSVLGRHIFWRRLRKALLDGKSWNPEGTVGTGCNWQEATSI

Take peptide TLIQ2 (from UniProt O00206): in experiment [1], the dissociation constant (Kd) (as a rule, the concentration at which binding is half-saturated) amounted to 9.03 µM.

With peptide TLIQ2, the Kd in experiment [2] is 6.69 µM.
